Experimental findings from the emibetuzumab library of Makowski et al. (2022) are described below.

The labels stand for the following.
B1: VH:VL chains; a variant is named by its letters at X, in order (parent)
chain 1: QVQLVQSGAEVKKPGASVKVSCKASGYTFTDYXMHWVRQAPGQGLEWMGXVNPNXXXTTYNQKFEGRVTMTTDTSTSTAYMELRSLRSDDTAVYYCARXNXLDXWGQGTTVTVSS
chain 2: DIQMTQSPSSLSASVGDRVTITCSVSSSVSSIYLHWYQQKPGKAPKLLIYSTSNLASGVPSRFSGSGSGTDFTLTISSLQPEDFATYYCQVYSGYPLTFGGGTKVEIK

In the data set the parent is B1. Kind of data set: yeast display scFab, FACS + sequencing. In outline: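 Non-specific binding was called from deep sequencing of sorted yeast cells displaying a heavy-chain CDR mutant scFab library. Cells labelled with anti-Myc and biotinylated ovalbumin (260 μg/mL in PBSB, 3 h, room temperature) or soluble membrane proteins (130 μg/mL, 20 min on ice) were FACS-sorted, collecting the top 25% and bottom 10% of binders from two replicates. A sequence was positive when present in ≥3 of 4 pooled positive samples and absent from all negatives, and negative under the converse rule.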
Regarding YETEGDVF, the non-specific binding call was “no binding”.

As to YERTTDLS, the non-specific binding call is on record as “binds”.

Turning to SETTDSSA, the non-specific binding call is listed as “no binding”.

For SETTDDVA, the non-specific binding call was “no binding”.

AERRDDGA: the non-specific binding call was “no binding”. The entry for AETKGDVY is “no binding”; for SERRSSAF it is “no binding”. The entry for VETGGAVA is “no binding”. For the variant VGGKNSVD, the non-specific binding call is on record as “no binding”. Take DGGKNSVD: the non-specific binding call is listed as “no binding”.

Consider DGERTAGV, for which the non-specific binding call is reported as “no binding”.

As for VETEGDVY, the non-specific binding call is “no binding”. The entry for VETEGDVA is “no binding”; for DGGKNDWV it is “no binding”; for DGGKNDLA it is “no binding”. The entry for VETGNAVY is “no binding”; for VEREADWF it is “no binding”.

For the variant YGETGDSV, the non-specific binding call is listed as “no binding”. The entry for YGETGFWY is “binds”.

On to VETTDSWV, for which the non-specific binding call was “no binding”. For VETGNSGA, the non-specific binding call is reported as “no binding”.

Regarding AETAGAAA, the non-specific binding call is “no binding”. The entry for DGGRAFWF is “binds”; for VEKGGDWD it is “no binding”; for SEKGGSSA it is “no binding”.

As to VGGGNDLA chain 1 R87K, the non-specific binding call was “no binding”. The entry for VERRGSWS is “no binding”; for AETTDSWV it is “no binding”. The entry for VGGRADGF is “binds”; for FGGEGDGA it is “binds”; for DGARNAGV it is “no binding”. Consider VETGNDAV, for which the non-specific binding call was “no binding”. The entry for YGGRGDAD is “no binding”; for DEKGGSSA it is “no binding”. The entry for DGGRGDAF is “no binding”. The entry for YGGGGVAA is “binds”; for VETEGDAV it is “no binding”; for DGGADVGA it is “binds”. For DGARGALF, the non-specific binding call was “binds”.

YGGRGSWV: the non-specific binding call is recorded as “no binding”. With YGGGGDVV, the non-specific binding call is “no binding”. The entry for DGGENDVY is “no binding”; for DGGENDVF it is “no binding”. The entry for VETRSDVA is “no binding”; for VGGGGDGS it is “no binding”. YGGRGDWV: the non-specific binding call was “no binding”. The entry for SGEGNSWA is “no binding”. The entry for AETGASLS is “no binding”; for AGGRGDVD it is “no binding”. The entry for AGGGNDVV is “no binding”.

Turning to AGGGNDVY, the non-specific binding call is listed as “no binding”. The entry for VGGRGDGS is “no binding”; for DETRSAGA it is “no binding”; for DGGKNAVA it is “no binding”.

DGGKNAVV: the non-specific binding call is reported as “no binding”. The entry for SEKKADWA is “no binding”; for YGAAGSAA it is “binds”. In the case of DGGRGDVV, the non-specific binding call was “no binding”. The entry for YERRNDVV is “no binding”.

Consider VGGGGAAD, for which the non-specific binding call was “no binding”.

For VETKGDWD, the non-specific binding call is on record as “no binding”.

Consider YEKGGDGA, for which the non-specific binding call is recorded as “no binding”. The entry for YEKGGDGV is “no binding”; for SGGGNDLA chain 1 R87K it is “no binding”; for FGGENDGD it is “no binding”. The entry for YGAKGDGV is “no binding”. The entry for VETEGSGV is “no binding”; for YETKGDWD it is “no binding”.

Consider YGARGAAF, for which the non-specific binding call is on record as “binds”.

In the case of AETKGDWD, the non-specific binding call was “no binding”. The entry for AETKGDWV is “no binding”; for DETGGDWF it is “no binding”; for YGGGGASV it is “binds”. The entry for VGGTGDVF is “no binding”; for SEKKSAGA it is “no binding”. The entry for SGEGGAVA is “no binding”; for AGGGNAGD it is “no binding”; for YGGGGAVA it is “no binding”. For the variant SEREADWF, the non-specific binding call is recorded as “no binding”. The entry for YGGRGAVA is “no binding”; for SETGGFVV it is “no binding”; for YEKGGDVY it is “no binding”. The entry for YEKGGDVD is “no binding”. The entry for FGATSVSF is “binds”; for DGGEGVVY it is “binds”. As for VETGNSSA, the non-specific binding call is “no binding”. The entry for FGAKTASF is “no binding”.

Consider SGEGGAGA, for which the non-specific binding call is “no binding”. The entry for FGAATDGV is “binds”; for SETGADVA it is “no binding”; for SGGRTYGV it is “binds”. Take FERTSALF: the non-specific binding call is given as “binds”.

For DGGGGYWF, the non-specific binding call is “binds”. The entry for VGAEDDVA is “no binding”; for DGGKGAVD it is “binds”. The entry for SGGRDSGV is “binds”; for SGETGDSV it is “no binding”. The entry for VGAEGVWS chain 1 G66S is “binds”; for VERASAVV it is “no binding”; for VETEGDWY it is “no binding”. Consider VETEGDWD, for which the non-specific binding call is given as “no binding”. The entry for SETTDSLD is “no binding”. The entry for VETEGAVY is “no binding”; for DGGRGDGA it is “no binding”; for FEKGSDVA it is “no binding”. The entry for SERRDVLY is “binds”; for SETTDAGV it is “no binding”.

With SETTDAGD, the non-specific binding call is given as “no binding”. The entry for DGGGNDLA chain 1 R87K is “no binding”; for SETKGDVY it is “no binding”; for DGGKNDGS it is “no binding”. The entry for DGGKNDGV is “no binding”; for DGGKNDGD it is “no binding”; for YGGRGYAV it is “binds”.

With VEKKDYSA, the non-specific binding call is “no binding”. On to AETKGFAV, for which the non-specific binding call is “no binding”. The entry for VERGTYGV is “no binding”; for SETKGDWA it is “no binding”. The entry for SETKGDWD is “no binding”. The entry for VGGGASGV is “no binding”. As to YERESAAV, the non-specific binding call is listed as “no binding”. The entry for VETEGAGA is “no binding”. The entry for FERRAFGY is “binds”. The entry for SETGAALD is “no binding”.

As to VERGGFGS, the non-specific binding call is “binds”. Consider YERRDVLY, for which the non-specific binding call is given as “binds”. The entry for SETGGAGD is “no binding”; for YGETGFGS it is “binds”; for FGEEDFSS chain 1 W105R it is “binds”. The entry for DGEGGDWD is “binds”; for VGGTDFVA it is “no binding”.

Regarding VETGNDGA, the non-specific binding call was “no binding”. The entry for VETGNDGV is “no binding”; for VETEGSSV it is “no binding”; for DETKGDWD it is “no binding”. The entry for VETEGDGF is “no binding”; for VETEGDGV it is “no binding”. The entry for FGAAAVGD is “binds”; for VGARNSGV it is “no binding”. Take AGGGNSGV: the non-specific binding call is “no binding”.

With VERKGYLA, the non-specific binding call is reported as “binds”. On to VGEKGDGV, for which the non-specific binding call is listed as “no binding”.

VETGNDLV: the non-specific binding call is listed as “no binding”.

Take YETTDSWV: the non-specific binding call is on record as “no binding”. The entry for AGGENDGD is “no binding”.

With AEREADWV, the non-specific binding call is given as “no binding”.

With VETGGAAA, the non-specific binding call is listed as “no binding”. The entry for DGERDYSD is “binds”; for YERRSSAF it is “no binding”; for DEKKADWA it is “no binding”. The entry for FGAKGSSS is “binds”. Take SEKKDYSA: the non-specific binding call was “no binding”.

Take DERRSSAF: the non-specific binding call was “no binding”. The entry for VEKGGSGV is “no binding”; for VEKGGSGD it is “no binding”.

Regarding SGEGGAAV, the non-specific binding call is given as “no binding”. For AGGGNDGV, the non-specific binding call is “no binding”.

Regarding AGGGNDGA, the non-specific binding call is “no binding”.

YERRGSWS: the non-specific binding call was “no binding”. The entry for DGGKNAGV is “no binding”; for DGGKNAGD it is “no binding”; for DETGNVWF it is “no binding”.

Regarding AGETGFSA, the non-specific binding call is listed as “binds”. The entry for SGGKNSVD is “no binding”; for YGARNAAV it is “binds”. The entry for DGARNAAA is “no binding”; for AERRGSWS it is “no binding”. The entry for SETGGDWV is “no binding”. YGATSSLA: the non-specific binding call is “binds”. With VEKTGVGA, the non-specific binding call is given as “binds”. The entry for AGEGNSWA is “no binding”; for VGGGADGA it is “no binding”; for VGGGADGV it is “no binding”. The entry for VETGNSLV is “no binding”. The entry for VEKGGDVS is “no binding”; for YETGNVWF it is “no binding”.

Regarding FETGGYVY, the non-specific binding call is given as “no binding”. The entry for VGGGADVA is “no binding”. For the variant SGAGDYSD, the non-specific binding call is “binds”. The entry for VERGGDSY is “no binding”; for SETTDDAV it is “no binding”; for YGGKNSVD it is “no binding”. In the case of DGARNFGV, the non-specific binding call is given as “no binding”. VGGGNAGD: the non-specific binding call is “no binding”. The entry for VETGNDVA is “no binding”. For the variant DGGGASSA, the non-specific binding call is “no binding”. The entry for VGATSVSF is “binds”. The entry for YGGRAAGA is “binds”. The entry for DGGGNDLV is “no binding”; for VGEGGDAY it is “no binding”.

For the variant AGGGNDWV, the non-specific binding call is reported as “no binding”. The entry for DGGKNDAV is “no binding”; for AETKGAVA it is “no binding”. Consider DGARNSGV, for which the non-specific binding call is “no binding”.

As for VEKGGDGV, the non-specific binding call is reported as “no binding”. The entry for DETEGDVF is “no binding”; for SETGNVWF it is “no binding”. The entry for AGGRSFVF is “binds”; for VGETSYVD it is “binds”; for YETETALY it is “no binding”. The entry for DGGGNVSD is “no binding”.

Consider VGGGAAGF, for which the non-specific binding call is given as “no binding”. The entry for VGGGAAGV is “no binding”; for FGATSFSV it is “binds”. The entry for AETKGDGV is “no binding”. The entry for AETKGDGA is “no binding”; for YETGAAAA it is “no binding”; for DETGGSSD it is “no binding”. For the variant AETKGALD, the non-specific binding call was “no binding”. The entry for DGAKGDGV is “no binding”; for SETGGDVA it is “no binding”; for YGAGDFGA it is “binds”. The entry for DGGENAGD is “no binding”; for DGGKNDVV it is “no binding”. The entry for SGEEGSGA is “binds”; for YGGRADVY it is “no binding”. On to DGGRSAVF, for which the non-specific binding call is reported as “no binding”. The entry for AETKGAAA is “no binding”. The entry for FERTSVWF chain 1 L45F is “binds”; for AETKGSLA it is “no binding”. The entry for VETRSSSV is “no binding”. AGERNVAS: the non-specific binding call was “binds”. The entry for VGATSFSA is “binds”.
